From patent US8013125B2, “Metalloproteinase 9 and metalloproteinase 2 binding proteins” (Dyax Corp., priority 2008, dated 2011)
Entries after “also recorded” stand apart in the source; their conditions may differ.

Assays:
[1] = system: gelatinolytic activity (tumoral MMP-2-9) in MCF-7 tumor sections; test: Film in situ zymography (FIZ); assay type: biochemical, human; conditions: 500 nM, 37° C. overnight
Procedure: (§1) PBS-control treated tumors were screened with M0237-D02 for gelatinase expression using the FIZ approach. The tumors tested were Colo205 and MCF-7. Briefly, frozen slides of tumpor sections were dried at room temperature and 200 μl of in situ Zymo buffer (TCNB)+20 μg/ml of gelatin quenched substrate from molecular probes was added. The slides were incubate at 37° c. overnight in the presence of M0237-D02 at 500 nM or GM6001 used as a positive control at 100 μM. The substrate was washed in MilliQ (3 times) and the mounted slides were treated with anti-Fade+Dapi mounting medium.

[2] = system: gelatinolytic activity (tumoral MMP-2-9) in Colo205 tumor sections; test: Film in situ zymography (FIZ); assay type: biochemical, human; conditions: 500 nM, 37° C. overnight
Procedure: as §1

[3] = molecular target: T1, Human MMP-9 catalytic domain (Homo sapiens, UniProt P14780); test: Ki determination with fluorogenic peptide substrate; assay type: biochemical; conditions: fluorogenic peptide substrates
T1 construct: Human MMP-9 catalytic domain (BIOMOL, SE-244); purchased BIOMOL SE-244
T1 sequence (P14780 107-449 limits assumed): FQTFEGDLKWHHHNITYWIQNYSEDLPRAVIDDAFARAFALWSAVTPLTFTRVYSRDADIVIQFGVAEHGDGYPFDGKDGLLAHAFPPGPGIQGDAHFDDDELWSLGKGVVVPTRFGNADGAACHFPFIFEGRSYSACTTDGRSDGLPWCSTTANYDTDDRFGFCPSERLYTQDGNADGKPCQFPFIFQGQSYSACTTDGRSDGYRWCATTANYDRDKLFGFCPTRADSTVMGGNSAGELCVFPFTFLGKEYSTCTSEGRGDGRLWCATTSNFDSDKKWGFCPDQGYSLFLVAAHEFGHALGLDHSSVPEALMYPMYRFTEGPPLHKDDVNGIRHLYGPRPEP
Procedure: (§2) This example characterized the interaction of the M0237-D02 hIgG1 with the human and mouse MMP-9. The Ki was measured and the inhibition mechanism was determined.
(§3) Materials: • Substrate: Mca -KPLGL-Dap(Dnp)-AR-NH2(SEQ ID NO: 1279) (M-2350) from BACHEM (521575). A 10mM stock solution was prepared in DMSO. • Enzymes: • Human MMP-9 catalytic domain (BIOMOL, SE-244). Enzyme concentration was measured by titration with TIMP-1 (2522-104) • Mouse MMP-9 (R&D, 909-MM), APMA-activated. • M0237-D02 hIgG1 : 2517-014. Dialysed against TCN. • TCNB: 50 mM Tris/HCl, 10 mM CaCl2, 150 mM NaCl, 0.05% Brij 35, pH 7.5. • 96-well black plates from Perkin Elmer (6005270) • Spectramax M2e to measure fluorescence emission of the substrate upon hydrolysis (temperature control set at 30° C.; λexc=328 nm and λem=393 nm)
(§4) The enzyme (final concentration=0.23 and 0.17 nM for the human and mouse MMP-9, respectively) was preincubated with various concentrations (0-50 nM) of M0237-D02 for 1 h at 30° C. The substrate was then added to a final concentration ranging from 5 to 40 μM and initial rates were recorded.
(§5) Each data point was measured in triplicate, and initial rates were averaged.
(§6) Averaged initial rates were plotted against the M0237-D02 concentration for each substrate concentration, and IC50's were calculated using the following equation: […]
(§7) The IC50 values were then plotted against the substrate concentration.

[4] = molecular target: T2, Mouse MMP-9 (Mus musculus, UniProt P41245); test: as above; assay type: biochemical; conditions: fluorogenic peptide substrates
T2 construct: purchased R&D 909-MM
T2 sequence (P41245 108-730): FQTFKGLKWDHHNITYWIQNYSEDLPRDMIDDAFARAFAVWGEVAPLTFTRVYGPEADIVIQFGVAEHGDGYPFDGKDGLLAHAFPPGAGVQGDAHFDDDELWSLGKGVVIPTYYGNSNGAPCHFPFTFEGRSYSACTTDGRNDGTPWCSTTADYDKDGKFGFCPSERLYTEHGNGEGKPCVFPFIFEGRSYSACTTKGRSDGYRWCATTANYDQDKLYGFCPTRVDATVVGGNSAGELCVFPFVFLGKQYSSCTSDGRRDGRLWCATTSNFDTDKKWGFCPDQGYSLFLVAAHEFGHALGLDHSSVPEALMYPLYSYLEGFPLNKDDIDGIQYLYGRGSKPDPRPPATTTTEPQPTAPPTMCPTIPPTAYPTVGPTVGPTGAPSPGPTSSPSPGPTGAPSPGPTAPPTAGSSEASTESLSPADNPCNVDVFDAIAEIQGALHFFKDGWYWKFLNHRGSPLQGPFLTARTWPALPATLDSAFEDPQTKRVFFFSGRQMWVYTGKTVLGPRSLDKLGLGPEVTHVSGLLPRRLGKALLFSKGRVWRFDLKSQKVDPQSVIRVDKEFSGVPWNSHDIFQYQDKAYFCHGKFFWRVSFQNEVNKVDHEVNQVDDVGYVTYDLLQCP
Procedure: as §2, §3, §4, §5, §6, §7

[5] = molecular target: T1, Human MMP-9 catalytic domain; test: Inhibition progress curves and kinetic analysis; assay type: biochemical; conditions: 25° C.; for kobs: substrate 9 μM
Procedure: The kinetics of the interaction between M0237-D02 and the human MMP-9 were determined. The rates were determined using the following equation: […]
The second order rate constant for the association of the enzyme E and the inhibitor I (kon) and the first order rate constant for the dissociation of the complex El (koff) can be calculated from inhibition progress curves obtained at different inhibitor concentrations.
Materials: • Substrate: Mca -KPLGL-Dap(Dnp)-AR-NH2(SEQ ID NO: 1279) (M-2350) from BACHEM (521575). A 10mM stock solution was prepared in DMSO. • Human MMP-9 catalytic domain (BIOMOL, SE-244). • M0237-D02 hIgG1 : 2517-068. • All measurements were performed at 25° C. in TCNB: 50 mM Tris/HCl, 10 mM CaCl2, 150mM NaCl 0.05% Brij 35, pH 7.5. • 96-well black plates from Perkin Elmer (6005270) • Spectramax M2e to measure fluorescence emission of the substrate upon hydrolysis (λexc=328 nm and λem=393 nm)
The enzyme (at a final concentration ranging from 1.5 to 12.3 nM), the substrate (9 μM final) and the M0237-D02 antibody were mixed, and the fluorescence was immediately recorded in order to follow the hydrolysis of the substrate. The observed inhibition rate (kobs) was obtained by analyzing the progress curves with a single exponential. The value for kon and koff were calculated from the plot of the kobs vs. the antibody concentration using the following equation: kobs=kon[I]+koff
kobs was measured at four antibody concentrations (table below): […]

[6] = molecular target: T3, human TIMP-1 (Homo sapiens, UniProt P01033); test: Biacore binding of analyte to coated antibody; conditions: Direct capture; 25° C.
T3 construct: purchased R&D 970-TM
T3 sequence (P01033 24-207): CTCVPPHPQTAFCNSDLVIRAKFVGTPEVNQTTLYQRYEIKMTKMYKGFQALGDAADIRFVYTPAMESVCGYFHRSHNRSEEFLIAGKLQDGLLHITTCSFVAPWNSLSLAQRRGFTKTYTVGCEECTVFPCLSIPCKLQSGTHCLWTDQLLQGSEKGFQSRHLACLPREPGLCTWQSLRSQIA
Procedure: (§8) The non competitive inhibition model implies that the ternary complex enzyme-substrate-inhibitor can form. It is however possible that this complex cannot form with bigger substrates, in which case the antibody would behave as a competitive inhibitor. In order to address this issue, the ability of M0237-D02 antibody to bind to the h-MMP-9 when the enzyme is complexed to its natural inhibitor h-TIMP-1 was determined. The reasoning is that if the antibody cannot bind to the h-MMP-9/h-TIMP-1 complex, it would probably behave as a competitive inhibitor of this enzyme in the presence of bigger substrates.
(§9) Experiments were performed at 25° C. with the help of a Biacore 3000 instrument. The MMP-9 binding protein (M0166F10) and the M0237-D02 antibody were coated to a CM5 chip either via standard amine coupling or using an anti-Fc antibody surface. Then either the active, human MMP-9 catalytic domain (BIOMOL, SE-244), the human pro-MMP-9 (R&D, 911-MP), the human TIMP-1 (R&D, 970-TM) or a h-MMP-9/h-TIMP-1 complex were flowed over the antibody surfaces, and binding was recorded.

[7] = molecular target: T4, human pro-MMP-9 (Homo sapiens, UniProt P14780); test: Biacore binding of analyte to coated antibody; conditions: Direct capture, 25° C.
T4 construct: the human pro-MMP-9 (R&D, 911-MP); purchased R&D 911-MP
T4 sequence (P14780 20-707 limits assumed): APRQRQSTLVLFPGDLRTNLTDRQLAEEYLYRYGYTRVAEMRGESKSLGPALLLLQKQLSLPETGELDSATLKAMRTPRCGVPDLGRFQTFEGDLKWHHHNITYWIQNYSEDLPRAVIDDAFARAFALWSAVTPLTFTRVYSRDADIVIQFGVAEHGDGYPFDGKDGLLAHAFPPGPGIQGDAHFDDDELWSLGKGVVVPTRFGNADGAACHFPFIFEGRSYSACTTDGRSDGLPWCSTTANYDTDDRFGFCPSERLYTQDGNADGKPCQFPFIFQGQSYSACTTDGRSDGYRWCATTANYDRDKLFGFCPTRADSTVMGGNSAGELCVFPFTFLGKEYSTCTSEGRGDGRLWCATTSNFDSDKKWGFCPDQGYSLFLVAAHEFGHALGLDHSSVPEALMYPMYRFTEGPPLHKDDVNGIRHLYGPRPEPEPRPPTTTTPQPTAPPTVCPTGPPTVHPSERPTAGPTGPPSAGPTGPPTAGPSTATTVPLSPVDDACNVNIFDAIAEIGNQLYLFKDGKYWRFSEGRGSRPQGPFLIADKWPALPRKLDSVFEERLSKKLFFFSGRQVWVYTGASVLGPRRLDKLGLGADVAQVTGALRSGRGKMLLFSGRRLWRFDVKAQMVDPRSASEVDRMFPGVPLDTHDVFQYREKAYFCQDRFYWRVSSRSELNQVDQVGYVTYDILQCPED
Procedure: as §8, §9

[8] = molecular target: h-MMP-9/h-TIMP-1 complex (Homo sapiens, UniProt P14780); test: Biacore binding of analyte to coated antibody; conditions: 25° C.
Chain of h-MMP-9/h-TIMP-1 complex (P14780 107-449 limits assumed): as the sequence (P14780 107-449 limits assumed) above
Chain of h-MMP-9/h-TIMP-1 complex (P01033 24-207 partner): as the sequence (P01033 24-207) above
Procedure: as §8, §9

[9] = molecular target: T1, Human MMP-9 catalytic domain; test: Biacore binding of analyte to coated antibody; conditions: 25° C.
Procedure: as §8, §9

[10] = system: inflammatory cell infiltration into the carrageenan-stimulated mouse air pouch; test: Carrageenan-stimulated mouse air pouch model; assay type: in vivo; conditions: FIG. 2
From the text: (§10) The purpose of the following experiments were to determine the effect of 539A-M0237-D02 on inflammation and specifically on inflammatory cell infiltration into the carrageenan-stimulated mouse air pouch and on the arthritic index in collagen-induced arthritis (CIA) mice.
For the carrageenan-stimulated mouse air pouch model, subcutaneous injection of air into the hind flank or back of mice produces an air pouch in a week, the interior surface of which contains both fibroblast-like and macrophage-like cells. Inflammatory stimulation of the pouch results in leukocyte recruitment to the pouch and release of mediators (cytokines) into the exudate. Preventing inflammatory cell infiltration into the air pouch may translate into preventing inflammation of the synovium in rheumatoid arthritis.
The effect of 539A-M0237-D02 on inflammatory cell infiltration was compared to inflammatory cell infiltration indomethacin and a control (PBS). In addition, inflammatory cell recruitment was compared to an unstimulated mouse.

[11] = system: collagen-induced arthritis (CIA) mice; test: Collagen-induced arthritis (CIA) mice; assay type: in vivo, mouse; conditions: CIA model, compared to untreated mice; FIG. 3
From the text: as §10
The collagen-induced arthritis (CIA) was produced by the immunization of susceptible strains of mice with native type II collagen. The collagen was emulsified in Freund's complete adjuvant and injected subcutaneously. A booster injection of collagen in incomplete adjuvant was given IP 21 days after the initial immunization. The disease is due to an auto-immune response induced upon immunization with collagen.
The effect 539A-M0237-D02 on the arthritic index was compared to administration of methotrexate (MTX).

[12] = from plot of kobs vs. the antibody concentration
[13] = Direct capture (amine coupling) of antibody on CM5 chip
[14] = Fc capture (anti-Fc antibody surface)

B1: M0237-D02: MMP-9/-2 dual reactive antibody inhibitor (parental); used as hIgG1 and Fab; VL/VH sequences in Example 7 (antibody, V domains shown)
VL: QDIQMTQSPATLSLSPGERATLSCRASQSISSFLAWYQQKPGQAPRLLIYDASYRATGIPARFSGSGSGTDFTLTISSLEPEDYAVYYCQQRGNWPITFGQGTRLEIKRTVAAPS
VH: EVQLLESGGGLVQPGGSLRLSCAASGFTFSQYPMWWVRQAPGKGLEWVSYIVPSGGRTYYADSVKGRFTISRDNSKNTLYLQMNSLRAEDTAVYYCAKDRAYGDYVGWNGFDYWGQGTLVTVSSASTKGPSVFPLAPSSKS
inhibition of gelatinolytic activity [1]: complete inhibition
inhibition of gelatinolytic activity [2]: complete inhibition
inhibition model [3]: non competitive inhibitor
inhibition model [4]: non competitive inhibitor
kobs ([5]; M0237-D02 concentration 14.4 nM): 0.0013 s⁻¹
kobs ([5]; M0237-D02 concentration 19.2 nM): 0.0019 s⁻¹
kobs ([5]; M0237-D02 concentration 28.8 nM): 0.0024 s⁻¹
kobs ([5]; M0237-D02 concentration 115.2 nM): 0.0086 s⁻¹
koff [5, 12]: ~4 10^−4 s^−1
kon [5, 12]: ~7 10^4 M^−1 s^−1
Binding of huTIMP-1 [6]: No
Binding of Pro-huMMP-9 ([7]; listed as 539A-M0237D02): No
Binding of Pro-huMMP-9 ([7]; listed as M237-D02): observed neither
Binding of huTIMP-1/cat-huMMP-9 ([8]; Direct capture): No
Binding of huTIMP-1/cat-huMMP-9 ([8]; Fc capture): no binding was observed; also recorded: cannot bind
Binding of huTIMP-1/cat-huMMP-9 ([8]; Fc capture, listed as 539A-M0237D02): No
Binding of Cat-huMMP-9 [9, 13]: No
Binding of Cat-huMMP-9 [9, 14]: could be observed only if this antibody was captured via an anti-Fc antibody
Binding of Cat-huMMP-9 ([9]; Fc capture (anti-Fc antibody surface), listed as 539A-M0237D02): Yes
lymphocyte infiltration [10]: significantly decreased
neutrophil infiltration [10]: significantly decreased
total white blood cell infiltration [10]: significantly decreased
arthritic index [11]: decreased

B2: M0166-F10: inhibitory MMP-9 binding antibody (hMMP-9 antibody inhibitor) (antibody, V domains shown)
VL: QSELTQPPSASAAPGQRVTISCSGSSSNIGSNTVTWYQKLPGTAPKLLIYNNYERPSGVPARFSGSKSGTSASLAISGLQSEDEADYYCATWDDSLIANYVFGSGTKVTVLGQPKANP
VH: EVQLLESGGGLVQPGGSLRLSCAASGFTFSPYLMNWVRQAPGKGLEWVSSIYSSGGGTGYADSVKGRFTISRDNSKNTLYLQMNSLRAEDTAVYYCARIYHSSSGPFYGMDVWGQGTTVTVSSASTKGPSVFPLAPSSKS
Binding of huTIMP-1 [6]: No
Binding of Pro-huMMP-9 [7]: observed neither
Binding of Pro-huMMP-9 ([7]; listed as 539A-M0166F10): ~No
Binding of huTIMP-1/cat-huMMP-9 ([8]; Direct capture): no binding was observed
Binding of huTIMP-1/cat-huMMP-9 ([8]; Direct capture, listed as 539A-M0166F10): No
Binding of Cat-huMMP-9 [9, 13]: binds
Binding of Cat-huMMP-9 ([9]; Direct capture (amine coupling) of antibody on CM5 chip, listed as 539A-M0166F10): Yes
Binding of Cat-huMMP-9 [9, 14]: binds
Binding of Cat-huMMP-9 ([9]; Fc capture (anti-Fc antibody surface), listed as 539A-M0166F10): Yes
